Conditions: Hordeum vulgare; pH 6.3; 25 °C; GdnHCl; Fluorescence; MES 450 mM; reversible: yes; whole UniProt chain shown

B1: Subtilisin-chymotrypsin inhibitor-2A wild type, P01053 (protein)
chain: MSSVEKKPEGVNTGAGDRHNLKTEWPELVGKSVEEAKKVILQDKPEAQIIVLPVGTIVTMEYRIDRVRLFVDKLDNIAQVPRVG
- denaturant m value: 1.89 kcal/mol/M
- denaturant midpoint (higher = more stable): 3.99 M
- unfolding free energy: 7.53 kcal/mol

— FireProtDB (doi:10.1021/bi00250a042)
